Measured values taken from patent US7807396.

How the values were obtained:
[1] = molecular target: Aβ added to the cultures at 10 µM in a non-fibrillar state; assay: cell-based or functional assay
[2] = molecular target: human β-endorphin1-31 (human) (UniProt P01189); assay: cell-based or functional assay
[3] = molecular target: amyloid beta peptide Aβ1-40; assay: cell-based or functional assay
[4] = molecular target: dynorphin B-9 (UniProt P01213)

Chain of human β-endorphin1-31 (human) (P01189 237-267 limits assumed): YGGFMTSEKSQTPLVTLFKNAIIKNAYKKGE

“human neprilysin expressed from a lentiviral construct in primary neuronal cultures of neprilysin deficient mice (from UniProt P08473 2-750) (enzyme)” showed a survival of neuronal cells subjected to Aβ induced neurotoxicity (% increase in cell survival) [1] of 75.

For “insulysin purified from a thymoma cell line, EL-4 (from UniProt Q9JHR7 42-1019) (enzyme)”, the specific activity of enzyme purified from a thymoma cell line, EL-4 [2] was 3.3 µmols/min/mg.

“recombinant rat insulysin with an N-terminal His6 affinity tag, expressed in baculovirus-infected Sf9 cells (from UniProt P35559 42-1019) (enzyme)” gave an inhibition of deposition of 125I-Aβ1-40 onto pre-deposited Aβ1-40 (% inhibition with 50 ng of insulysin) [3] of 50.

With trypsin the “trypsin hydrolysis of the fluorogenic peptide Abz-GGFLRKHGQ-EDDnp (SEQ ID NO: 14)” value [4] was “trypsin hydrolysis of the same peptide showed inhibition, not activation, by dynorphin B-9”.
